The values that follow come from paper PMC7555893, “Structural role of essential light chains in the apicomplexan glideosome” (Communications Biology, 2020).

A word on the Kd: it is a measure of binding affinity in units of concentration. High values mean a looser complex, low ones a tighter complex. As a reminder, the stoichiometry N is the number of molecules, sites or subunits per partner or assembly.

The target of assay [1] is Pre-complex of TgELC2 with TgMyoA-C (T. gondii) (UniProt O00934). Put plainly: ITC; 200 uM protein (syringe) injected 19 x 2 uL into 20 uM pre-formed complex of light chain and MyoA peptide (cell, 1:1.1); 20 mM HEPES pH 7.5, 150 mM NaCl, 0.5 mM TCEP with 1 mM CaCl2; 25 °C; one-site model. In general terms: Isothermal titration calorimetry measures the heat released or taken up as one component is titrated into another.

Assay [2] has as its target P. falciparum myosin A tail-interacting protein, short construct (MTIP-S) (P. falciparum 3D7) (UniProt Q8I4W8). The assay can be described thus: ITC; MTIP in the cell, PfMyoA peptide in the syringe; one-site model; the conditions of this titration are not told.
The target of assay [3] is Pre-complex of TgELC1 with TgMyoA-C (T. gondii) (UniProt O00934). Put plainly: ITC; 200 uM protein (syringe) injected 19 x 2 uL into 20 uM pre-formed complex of light chain and MyoA peptide (cell, 1:1.1); 20 mM HEPES pH 7.5, 150 mM NaCl, 0.5 mM TCEP with 1 mM CaCl2; 25 °C; one-site model.
The target of assay [4] is Pre-complex of TgELC2 R17A with TgMyoA-C (T. gondii) (UniProt O00934). The assay is described as above.
For assay [5], the target named is T. gondii essential light chain 2 (TgELC2) (T. gondii). Put plainly: ITC; 200 uM peptide (syringe) injected 19 x 2 uL into 20 uM protein (cell); 20 mM HEPES pH 7.5, 150 mM NaCl, 0.5 mM TCEP with 5 mM EDTA; 25 °C; one-site model.
Assay [6] concerns the target T. gondii essential light chain 1 (TgELC1) (T. gondii). Described as above.
Assay [7] concerns the target TgELC2 E10A+H110A (T. gondii). The assay can be described thus: ITC; 200 uM peptide (syringe) injected 19 x 2 uL into 20 uM protein (cell); 20 mM HEPES pH 7.5, 150 mM NaCl, 0.5 mM TCEP with 5 mM CaCl2; 25 °C; one-site model.
The target in assay [8] is T. gondii essential light chain 2 (TgELC2) (T. gondii). The description is as above.
The next assay has as its target TgELC2 E10A (T. gondii). The description is as above.
Assay [9] deals with T. gondii essential light chain 1 (TgELC1) (T. gondii). Described as above.
A further assay has as its target TgELC2 S101A (T. gondii). Described as above.
The target in another assay is TgELC2 S102A (T. gondii). The assay is described as above.
Assay [10] has as its target TgELC2 S102E (phosphomimetic) (T. gondii). The assay is described as above.
For another assay, the target named is TgELC2 F79A (T. gondii). The description is as above.
Another assay has as its target T1, MTIP residues 77-204 (P. falciparum 3D7, UniProt Q8I4W8 77-204).
T1 construct: source: recombinantly expressed as a dimeric complex with PfMyoA-C, purified with PfELC (NiNTA IMAC, TEV, SEC)
T1 sequence: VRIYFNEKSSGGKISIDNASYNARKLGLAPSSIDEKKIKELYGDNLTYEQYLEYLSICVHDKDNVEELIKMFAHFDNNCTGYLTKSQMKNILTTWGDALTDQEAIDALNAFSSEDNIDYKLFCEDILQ
Put plainly: crystal structure. The following applies: both partners purified.

In assay [11] the target is T2, Pre-complex of MTIP-S with PfMyoA-C (P. falciparum 3D7 | P. falciparum, UniProt Q8I4W8;Q8IDR3).
T2 construct: also called MTIP pre-complex with MyoA-C; MTIP/PfMyoA-C complex; source: formed from purified MTIP-S (E. coli) and the MyoA peptide in 1:1.1 molar ratio, 1 h at 4 °C
T2 sequence 1: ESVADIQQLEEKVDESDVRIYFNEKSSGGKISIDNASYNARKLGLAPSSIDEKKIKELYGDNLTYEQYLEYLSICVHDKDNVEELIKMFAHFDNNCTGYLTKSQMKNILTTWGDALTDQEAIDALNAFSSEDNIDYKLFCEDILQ
T2 sequence 2: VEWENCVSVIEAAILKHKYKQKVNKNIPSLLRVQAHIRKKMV
The assay can be described thus: ITC; 200 uM protein (syringe) injected 19 x 2 uL into 20 uM pre-formed complex of light chain and MyoA peptide (cell, 1:1.1); 20 mM HEPES pH 7.5, 150 mM NaCl, 0.5 mM TCEP with 1 mM CaCl2; 25 °C; one-site model. The conditions noted are these: both partners purified.

Positions count from the first letter of the chain named. Names and notes keep the numbering of the source.

Regarding MLC1-S K168A (domain or fragment), in assay [1], the dissociation constant Kd turned out to be 1.2 nM, the dH was -47.7 kcal/mol and the stoichiometry N came to 0.79.

Take MLC1-S Q169A (domain or fragment): in [1], the Kd amounted to 2.3 nM, the dH is -48.8 kcal/mol and the stoichiometry N was found to be 0.89.

In [2], PfMyoA-C^ELC peptide yielded a Kd of 303 nM, a dH of -14.4 kcal/mol and a stoichiometry N of 0.74.

In assay [1], “T. gondii myosin light chain 1, short construct (MLC1-S) (domain or fragment)” had a Kd of 0.6 nM, a dH of -47.6 kcal/mol and a stoichiometry N of 0.81. In assay [3], this molecule came in with a dissociation constant Kd of 4.7 nM and a dH of -39.1 kcal/mol. Further, in assay [4], the Kd is 4.6 nM and the dH is -49.7 kcal/mol.

Take “TgMyoA-C^ELC peptide (from UniProt O00934 777-798)”: the Kd in [5] is 82 nM; in [6] it was 57 nM; in [7], 1100 nM; in assay [8], 39 nM; with TgELC2 E10A (T. gondii), 190 nM; in assay [9], 36 nM. Also, the dissociation constant Kd with TgELC2 S101A (T. gondii) was found to be 280 nM; with TgELC2 S102A (T. gondii), 76 nM; in [10] it was 140 nM; with TgELC2 F79A (T. gondii), 280 nM. The dH in assay [5] is -18 kcal/mol; in [6] it was -13 kcal/mol; in [7], -21 kcal/mol; in assay [8] it was -15 kcal/mol; with TgELC2 E10A (T. gondii) it was -17 kcal/mol; in [9], -13 kcal/mol. Also, the dH is -18 kcal/mol with TgELC2 S101A (T. gondii), -16 kcal/mol with TgELC2 S102A (T. gondii), -18 kcal/mol in assay [10] and -18 kcal/mol with TgELC2 F79A (T. gondii). The stoichiometry N in assay [5] was 0.77; in [6] it was 0.81; in [7], 0.75; in assay [8], 0.85; with TgELC2 E10A (T. gondii), 0.79; in assay [9], 1.05. Also, the stoichiometry N was 0.88 in the assay with TgELC2 S101A (T. gondii), 0.79 with TgELC2 S102A (T. gondii), 0.77 in assay [10] and 0.84 in the assay with TgELC2 F79A (T. gondii).

B1: PfMyoA-C (775-816), recombinant, expressed with MTIP 77-204 (domain or fragment)
chain: T2 sequence 2
On to B1, for which, in the assay with MTIP residues 77-204, the binding result is listed as “binds”.

B2: P. falciparum essential light chain (PfELC) (natural protein)
chain: MASDMEEKFREAFILFSSCSDHIEMYKFFELMNSFGIILTNDEKAALPNDINMDYWLNFAKKHYNYEQPFKHINNVNEQNTNVQIKIDNFLGIMKALDTRLTESDLNILLQITNPENKSTLNLKTVSQKLTESI
notes: also called full-length PfELC; source: E. coli BL21-CodonPlus(DE3)-RIL, purified (Ni-IMAC, TEV, SEC)
With B2, in assay [11], binding was characterised by a dissociation constant (Kd) of 109 ± 6.2 nM, the dH is -13.4 ± 0.1 kcal/mol and the “stoichiometry N” value was 0.86 ± 0.01.

B3: PfELC S127D (phosphomimetic) (natural protein)
chain: B2 chain with S127D
notes: source: E. coli, purified (expressed and purified under identical conditions as the wild type)
Regarding B3, in assay [11], the dissociation constant Kd stood at 260 ± 26 nM, the dH was -12.6 ± 0.2 kcal/mol and the “stoichiometry N” value was found to be 0.81 ± 0.01.
